Measured values published in patent US6462178B1, “G protein” (Yong Hou Wong, priority 1999, dated 2002).
Where two headings read alike, the source gives them in different places.

Columns and labels:
dopamine D2 receptor [1] = biological target: T1, dopamine D2 receptor (Homo sapiens, UniProt P14416); details: 10 μM dopamine; for IP Formation % Res.: relative to basal
dopamine D2 receptor [2] = biological target: T1, dopamine D2 receptor; details: COS-7, receptor + Gα16, 10 μM dopamine, cited from earlier work
T1 sequence (P14416 whole entry): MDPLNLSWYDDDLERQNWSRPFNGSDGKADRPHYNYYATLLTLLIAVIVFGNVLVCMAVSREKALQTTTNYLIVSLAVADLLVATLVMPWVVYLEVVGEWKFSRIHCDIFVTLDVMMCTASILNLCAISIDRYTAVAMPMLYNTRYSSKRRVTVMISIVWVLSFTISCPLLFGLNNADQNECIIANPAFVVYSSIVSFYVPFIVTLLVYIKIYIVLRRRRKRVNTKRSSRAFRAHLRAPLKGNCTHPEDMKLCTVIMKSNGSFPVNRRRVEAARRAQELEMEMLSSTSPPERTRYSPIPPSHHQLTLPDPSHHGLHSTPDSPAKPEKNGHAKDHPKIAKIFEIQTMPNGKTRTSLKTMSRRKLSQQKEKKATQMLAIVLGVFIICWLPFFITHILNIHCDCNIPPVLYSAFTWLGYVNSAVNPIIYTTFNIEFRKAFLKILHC

dopamine D2 receptor [3] = biological target: dopamine D2 receptor
[4] = biological target: formyl peptide (fMLP) receptor
melatonin Mel1b receptor = biological target: T2, melatonin Mel1b receptor
T2 sequence (P49286 whole entry, species assumed, looked up): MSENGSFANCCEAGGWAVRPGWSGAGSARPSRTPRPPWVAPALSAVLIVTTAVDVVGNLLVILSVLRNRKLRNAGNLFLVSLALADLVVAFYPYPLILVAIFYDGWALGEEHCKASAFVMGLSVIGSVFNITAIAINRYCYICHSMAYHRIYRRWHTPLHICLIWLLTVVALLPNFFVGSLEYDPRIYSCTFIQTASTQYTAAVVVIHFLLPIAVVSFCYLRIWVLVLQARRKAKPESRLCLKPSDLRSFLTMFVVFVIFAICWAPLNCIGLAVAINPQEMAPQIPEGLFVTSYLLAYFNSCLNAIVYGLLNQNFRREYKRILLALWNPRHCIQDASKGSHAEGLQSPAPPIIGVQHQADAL

melatonin Mel1c receptor [5] = biological target: melatonin Mel1c receptor
[6] = biological target: opioid receptor-like (ORL1) receptor
melatonin Mel1c receptor [7] = biological target: melatonin Mel1c receptor; remark: listed apart in the source
[8] = COS-7, receptor + 16z25 chimera
[9] = COS-7, receptor + 16z44 chimera

T1 sequence (P14416 whole entry): as the sequence (P14416 whole entry) above
Chain of complement C5a receptor (P21730 whole entry): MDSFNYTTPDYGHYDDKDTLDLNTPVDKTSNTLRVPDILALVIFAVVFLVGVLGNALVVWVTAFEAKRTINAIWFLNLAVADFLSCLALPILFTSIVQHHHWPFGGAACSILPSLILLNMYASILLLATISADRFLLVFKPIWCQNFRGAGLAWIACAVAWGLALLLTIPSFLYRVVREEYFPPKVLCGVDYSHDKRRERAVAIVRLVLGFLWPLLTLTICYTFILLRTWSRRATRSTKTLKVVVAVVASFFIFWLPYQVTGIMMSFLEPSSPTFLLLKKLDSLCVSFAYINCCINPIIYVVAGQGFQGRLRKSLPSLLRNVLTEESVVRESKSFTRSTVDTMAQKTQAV

For `NCCc1ccc(O)c(O)c1` [dopamine], the “IP Formation Agonist” value (dopamine D2 receptor [1]; [8]) was 40.1 ± 0.9, the “IP Formation % Res.” value (dopamine D2 receptor [1]; [8]) was 324% and the “IP Formation Agonist” value (dopamine D2 receptor [1]; [9]) was 84.5 ± 6.2. The “IP Formation % Res.” value (dopamine D2 receptor [1]; [9]) was 302%, the “IP Formation Agonist” value (dopamine D2 receptor [2]) was 24.0 ± 2.3 and the “IP Formation % Res.” value (dopamine D2 receptor [2]; relative to basal) was 207a %.

B1: 16z44 chimera (protein)
chain: MARSLTWRCCPWCLTEDEKAAARVDQEINRILLEQKKQDRGELKLLLLGPGESGKSTFIKQMRIIHGAGYSEEERKGFRPLVYQNIFVSMRAMIEAMERLQIPFSRPESKHHASLVMSQDPYKVTTFEKRYAAAMQWLWRDAGIRACYERRREFHLLDSAVYYLSHLERITEEGYVPTAQDVLRSRMPTTGINEYCFSVQKTNLRIVDVGGQKSERKKWIHCFENVIALIYLASLSEYDQCLEENNQENRMKESLALFGTILELPWFKSTSVILFLNKTDILEEKIPTSHLATYFPSFQGPKQDAEAAKRFILDMYTRMYTGCVDGPEGSNRNKETKEIYSHFTCATDTSNIQFVFDAVTDVIIQNNLKYIGLC
B1 gave an IP formation (PLC stimulation), % Res. (adenosine A1 receptor) of 188 % Res, an IP formation (PLC stimulation), % Res. (complement C5a receptor) of 457 % Res and an IP formation (PLC stimulation), % Res. (dopamine D1 receptor) of 287 % Res. For the same molecule, the IP formation (PLC stimulation), % Res. (dopamine D2 receptor [3]) was 302 % Res, the IP formation (PLC stimulation), % Res. [4] was 428 % Res and the IP formation (PLC stimulation), % Res. (melatonin Mel1a receptor) was 171 % Res. It also gave an IP formation (PLC stimulation), % Res. (melatonin Mel1b receptor) of 177 % Res, an IP formation (PLC stimulation), % Res. (melatonin Mel1c receptor [5]) of 307 % Res and an IP formation (PLC stimulation), % Res. [6] of 380 % Res. For the same molecule, the IP formation (PLC stimulation), % Res. (vasopressin V2 receptor) was 321 % Res, the IP formation (PLC stimulation), % Res. (µ-opioid receptor) was 269 % Res and the IP formation (PLC stimulation), % Res. (α2-adrenergic receptor) was 297 % Res. For the same molecule, the IP formation (PLC stimulation), % Res. (β2-adrenergic receptor) was 307 % Res, the IP formation (PLC stimulation), % Res. (δ-opioid receptor) was 548 % Res and the IP formation (PLC stimulation), % Res. (κ-opioid receptor) was 257 % Res. It also gave an IP formation, enhancement of the agonist response by coexpressed 16z44 (5HT1c receptor) of 43%, an IP formation, enhancement of the agonist response by coexpressed 16z44 (bombesin receptor) of 57% and an IP formation, enhancement of the agonist response by coexpressed 16z44 (muscarinic m1 receptor) of 34%. For the same molecule, the EC50 of 2-iodomelatonin for IP formation (melatonin Mel1c receptor [7]) was 0.4 nM.
